Measured values: the supplement of paper PMC9112550, “Optimization of the antimicrobial peptide Bac7 by deep mutational scanning” (BMC Biology, 2022)

Each sequence was assayed on Escherichia coli TOP10 (assay: shrunken log2 fold change of peptide-encoding DNA abundance (4.5 h post-induction vs induction); higher = less antimicrobial activity (less host growth inhibition)). Conditions: time post-induction: 4.5 h; library: site-saturation at positions 5, 18, 19, 20.
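Note: peptides expressed intracellularly from a pBAD plasmid library in pooled LB shake-flask culture, induced with 0.3% L-arabinose, DNA abundance read by NGS, three biological replicates, DESeq2 with apeglm shrinkage.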

Row | Sequence | shrunken log2 fold change
1 | RRIRLRPPRLPRPRPRPLCAPRP | 0.11
2 | RRIRFRPPRLPRPRPRPTEFPRP | -0.217
3 | RRIRDRPPRLPRPRPRPHAHPRP | 0.0605
4 | RRIRGRPPRLPRPRPRPFEYPRP | 0.0664
5 | RRIRERPPRLPRPRPRPFKMPRP | -0.559
6 | RRIRLRPPRLPRPRPRPKNVPRP | -0.124
7 | RRIRQRPPRLPRPRPRPKIYPRP | -0.277
8 | RRIRSRPPRLPRPRPRPWDWPRP | 0.676
9 | RRIRTRPPRLPRPRPRPCKKPRP | -0.0502
10 | RRIRDRPPRLPRPRPRPVLIPRP | -0.0161
11 | RRIRVRPPRLPRPRPRPMLKPRP | -0.293
12 | RRIRLRPPRLPRPRPRPGEGPRP | -0.036
13 | RRIRPRPPRLPRPRPRPTDHPRP | -0.114
14 | RRIRARPPRLPRPRPRPKHMPRP | -0.158
15 | RRIRIRPPRLPRPRPRPHAAPRP | -0.298
16 | RRIRWRPPRLPRPRPRPNRYPRP | 0.0333
17 | RRIRHRPPRLPRPRPRPCGEPRP | -0.0851
18 | RRIRARPPRLPRPRPRPDTPPRP | 0.331
19 | RRIRHRPPRLPRPRPRPWCCPRP | -0.352
20 | RRIRMRPPRLPRPRPRPHICPRP | -0.0377
21 | RRIRSRPPRLPRPRPRPMGHPRP | -0.256
22 | RRIRRRPPRLPRPRPRPTYTPRP | -0.214
23 | RRIRTRPPRLPRPRPRPAQRPRP | 0.356
24 | RRIRNRPPRLPRPRPRPRPEPRP | 0.295
25 | RRIRGRPPRLPRPRPRPSVCPRP | 0.159

Row | Sequence | shrunken log2 fold change
26 | RRIRRRPPRLPRPRPRPHWCPRP | 0.0137
27 | RRIRERPPRLPRPRPRPYHFPRP | -0.177
28 | RRIRSRPPRLPRPRPRPQMVPRP | -0.102
29 | RRIRSRPPRLPRPRPRPPMKPRP | 0.194
30 | RRIRARPPRLPRPRPRPMKVPRP | -0.0785
31 | RRIRKRPPRLPRPRPRPVWYPRP | 0.0528
32 | RRIRVRPPRLPRPRPRPLWGPRP | 0.0188
33 | RRIRIRPPRLPRPRPRPMCYPRP | -1
34 | RRIRTRPPRLPRPRPRPPKYPRP | -0.103
35 | RRIRNRPPRLPRPRPRPTMDPRP | -0.266
36 | RRIRLRPPRLPRPRPRPPCAPRP | 0.457
37 | RRIRSRPPRLPRPRPRPVLMPRP | -0.0465
38 | RRIRGRPPRLPRPRPRPVSMPRP | 0.401
39 | RRIRSRPPRLPRPRPRPLWCPRP | 0.148
40 | RRIRIRPPRLPRPRPRPARFPRP | -0.0256
41 | RRIRERPPRLPRPRPRPNNRPRP | -0.315
42 | RRIRSRPPRLPRPRPRPMMWPRP | 0.598
43 | RRIRSRPPRLPRPRPRPFTKPRP | -0.202
44 | RRIRQRPPRLPRPRPRPKTSPRP | -0.15
45 | RRIRYRPPRLPRPRPRPMLNPRP | -0.892
46 | RRIRTRPPRLPRPRPRPESKPRP | 0.214
47 | RRIRGRPPRLPRPRPRPDENPRP | 0.987
48 | RRIRGRPPRLPRPRPRPMHTPRP | 1.25
49 | RRIRDRPPRLPRPRPRPPDIPRP | -0.0754
50 | RRIRDRPPRLPRPRPRPHQFPRP | -0.282

Row | Sequence | shrunken log2 fold change
51 | RRIRDRPPRLPRPRPRPIEDPRP | -0.0411
52 | RRIRDRPPRLPRPRPRPKWDPRP | 0.488
53 | RRIRPRPPRLPRPRPRPMRPPRP | 1.04
54 | RRIRLRPPRLPRPRPRPFKWPRP | 0.00989
55 | RRIRYRPPRLPRPRPRPQMWPRP | -0.213
56 | RRIRHRPPRLPRPRPRPPHSPRP | 0.0314
57 | RRIRFRPPRLPRPRPRPTARPRP | 0.336
58 | RRIRCRPPRLPRPRPRPKGPPRP | 0.348
59 | RRIRARPPRLPRPRPRPVPWPRP | 0.452
60 | RRIRHRPPRLPRPRPRPKEAPRP | 0.00884
61 | RRIRMRPPRLPRPRPRPPFPPRP | 0.671
62 | RRIRGRPPRLPRPRPRPLDGPRP | 0.342
63 | RRIRYRPPRLPRPRPRPKNPPRP | -0.315
64 | RRIRRRPPRLPRPRPRPCTVPRP | -0.0302
65 | RRIRFRPPRLPRPRPRPVHMPRP | -0.0472
66 | RRIRWRPPRLPRPRPRPYYVPRP | -0.213
67 | RRIRLRPPRLPRPRPRPSTIPRP | -0.246
68 | RRIRTRPPRLPRPRPRPKENPRP | 0.15
69 | RRIRERPPRLPRPRPRPRWAPRP | 0.425
70 | RRIRDRPPRLPRPRPRPNPSPRP | 0.13
71 | RRIRIRPPRLPRPRPRPDVYPRP | -0.571
72 | RRIRSRPPRLPRPRPRPLVCPRP | 0.0734
73 | RRIRKRPPRLPRPRPRPHKPPRP | -0.0045
74 | RRIRRRPPRLPRPRPRPLGSPRP | 0.0898
75 | RRIRQRPPRLPRPRPRPEMAPRP | -0.0608

Row | Sequence | shrunken log2 fold change
76 | RRIRQRPPRLPRPRPRPNETPRP | -0.0269
77 | RRIRFRPPRLPRPRPRPDGSPRP | -0.0167
78 | RRIRPRPPRLPRPRPRPCKHPRP | -0.131
79 | RRIRCRPPRLPRPRPRPVSFPRP | -0.228
80 | RRIRFRPPRLPRPRPRPFVNPRP | -1.51
81 | RRIRHRPPRLPRPRPRPSNFPRP | -0.108
82 | RRIRVRPPRLPRPRPRPWISPRP | -0.0628
83 | RRIRGRPPRLPRPRPRPKMKPRP | 0.723
84 | RRIRVRPPRLPRPRPRPFKYPRP | -0.0213
85 | RRIRTRPPRLPRPRPRPGHNPRP | -0.184
86 | RRIRDRPPRLPRPRPRPASCPRP | 0.0585
87 | RRIRLRPPRLPRPRPRPHVRPRP | 0.0652
88 | RRIRCRPPRLPRPRPRPLSFPRP | -0.398
89 | RRIRTRPPRLPRPRPRPSFPPRP | -0.261
90 | RRIRGRPPRLPRPRPRPSHHPRP | -0.286
91 | RRIRVRPPRLPRPRPRPGWVPRP | 0.0954
92 | RRIRKRPPRLPRPRPRPIDHPRP | -0.0104
93 | RRIRVRPPRLPRPRPRPNRMPRP | -0.093
94 | RRIRVRPPRLPRPRPRPDDLPRP | -0.0407
95 | RRIRCRPPRLPRPRPRPYHKPRP | -0.743
96 | RRIRQRPPRLPRPRPRPRDIPRP | 0.0657
97 | RRIRYRPPRLPRPRPRPYMDPRP | -0.14
98 | RRIRMRPPRLPRPRPRPAAFPRP | 0.503
99 | RRIRARPPRLPRPRPRPTVTPRP | 0.707
100 | RRIRPRPPRLPRPRPRPDGEPRP | 0.0766

Row | Sequence | shrunken log2 fold change
101 | RRIRDRPPRLPRPRPRPESYPRP | 0.0185
102 | RRIRRRPPRLPRPRPRPDYRPRP | 0.0309
103 | RRIRMRPPRLPRPRPRPTIDPRP | 0.0912
104 | RRIRARPPRLPRPRPRPCYLPRP | -0.262
105 | RRIRYRPPRLPRPRPRPPTVPRP | -0.146
106 | RRIRQRPPRLPRPRPRPFSAPRP | -0.0161
107 | RRIRHRPPRLPRPRPRPMHEPRP | 0.0983
108 | RRIRYRPPRLPRPRPRPNLDPRP | -0.148
109 | RRIRWRPPRLPRPRPRPVHHPRP | -0.0507
110 | RRIRDRPPRLPRPRPRPMCDPRP | 0.0645
111 | RRIRWRPPRLPRPRPRPRTEPRP | 0.225
112 | RRIRKRPPRLPRPRPRPFIQPRP | 0.0388
113 | RRIRARPPRLPRPRPRPLDHPRP | 0.267
114 | RRIRTRPPRLPRPRPRPPVCPRP | 0.713
115 | RRIRPRPPRLPRPRPRPAMPPRP | 0.246
116 | RRIRQRPPRLPRPRPRPIFDPRP | -0.0877
117 | RRIRPRPPRLPRPRPRPYRHPRP | -0.483
118 | RRIRERPPRLPRPRPRPLQIPRP | -0.0796
119 | RRIRYRPPRLPRPRPRPNMLPRP | -1.22
120 | RRIRSRPPRLPRPRPRPEKWPRP | 0.0431
121 | RRIRCRPPRLPRPRPRPKDIPRP | -0.0796
122 | RRIRVRPPRLPRPRPRPSKVPRP | -0.693
123 | RRIRHRPPRLPRPRPRPGFVPRP | 0.607
124 | RRIRQRPPRLPRPRPRPKAVPRP | -0.00151
125 | RRIRHRPPRLPRPRPRPMLVPRP | -0.155

Row | Sequence | shrunken log2 fold change
126 | RRIRVRPPRLPRPRPRPWYWPRP | -0.332
127 | RRIRKRPPRLPRPRPRPMPNPRP | 0.399
128 | RRIRQRPPRLPRPRPRPMFNPRP | -0.436
129 | RRIRTRPPRLPRPRPRPWTQPRP | 0.0256
130 | RRIRWRPPRLPRPRPRPYYKPRP | -0.823
131 | RRIRCRPPRLPRPRPRPPCVPRP | 0.0597
132 | RRIRQRPPRLPRPRPRPVGKPRP | -0.14
133 | RRIRTRPPRLPRPRPRPARPPRP | 0.883
134 | RRIRHRPPRLPRPRPRPIGRPRP | -0.00982
135 | RRIRVRPPRLPRPRPRPWWCPRP | -0.0966
136 | RRIRSRPPRLPRPRPRPEFIPRP | 0.162
137 | RRIRARPPRLPRPRPRPRFLPRP | 0.371
138 | RRIRRRPPRLPRPRPRPDYYPRP | -0.0675
139 | RRIRFRPPRLPRPRPRPTVYPRP | -0.307
140 | RRIRPRPPRLPRPRPRPNQKPRP | -0.0811
141 | RRIRLRPPRLPRPRPRPAMCPRP | 0.059
142 | RRIRERPPRLPRPRPRPKVFPRP | 0.0354
143 | RRIRSRPPRLPRPRPRPYKSPRP | -0.694
144 | RRIRERPPRLPRPRPRPMIPPRP | -0.0272
145 | RRIRWRPPRLPRPRPRPWYGPRP | -0.34
146 | RRIRVRPPRLPRPRPRPRSWPRP | 0.325
147 | RRIRARPPRLPRPRPRPHLHPRP | 0.0371
148 | RRIRNRPPRLPRPRPRPYCVPRP | -0.172
149 | RRIRDRPPRLPRPRPRPVFWPRP | 0.639
150 | RRIRYRPPRLPRPRPRPPAVPRP | -0.143
